In patent US20180104312A1 (Eli Lilly, published 2018):
Residue numbers refer to the chain shown, from its start. Where two headings read alike, the source gives them in different places. No end group written: not given here.

What was measured:
[1] = target: T1, human glucose-dependent insulinotropic polypeptide receptor (human) (UniProt P48546); experiment: cell-based or functional assay
T1 sequence (looked up): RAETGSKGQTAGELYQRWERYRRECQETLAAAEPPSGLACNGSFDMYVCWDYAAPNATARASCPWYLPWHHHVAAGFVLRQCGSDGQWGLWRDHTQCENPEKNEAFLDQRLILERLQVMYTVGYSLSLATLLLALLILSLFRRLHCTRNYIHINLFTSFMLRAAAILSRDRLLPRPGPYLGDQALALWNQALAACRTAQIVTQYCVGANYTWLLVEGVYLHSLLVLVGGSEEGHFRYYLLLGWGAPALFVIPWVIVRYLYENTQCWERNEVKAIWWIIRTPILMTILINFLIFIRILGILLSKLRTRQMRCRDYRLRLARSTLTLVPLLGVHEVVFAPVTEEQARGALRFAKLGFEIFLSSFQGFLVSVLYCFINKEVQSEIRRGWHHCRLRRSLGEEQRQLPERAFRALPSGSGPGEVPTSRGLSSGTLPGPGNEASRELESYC

[2] = target: T2, recombinant human glucagon receptor (human, UniProt P47871 26-477); experiment: cell-based or functional assay
[3] = target: T3, human Glucagon-Like Peptide-1 receptor (human, UniProt P43220 24-463); experiment: cell-based or functional assay
Target sequence in this assay (P43220 24-463): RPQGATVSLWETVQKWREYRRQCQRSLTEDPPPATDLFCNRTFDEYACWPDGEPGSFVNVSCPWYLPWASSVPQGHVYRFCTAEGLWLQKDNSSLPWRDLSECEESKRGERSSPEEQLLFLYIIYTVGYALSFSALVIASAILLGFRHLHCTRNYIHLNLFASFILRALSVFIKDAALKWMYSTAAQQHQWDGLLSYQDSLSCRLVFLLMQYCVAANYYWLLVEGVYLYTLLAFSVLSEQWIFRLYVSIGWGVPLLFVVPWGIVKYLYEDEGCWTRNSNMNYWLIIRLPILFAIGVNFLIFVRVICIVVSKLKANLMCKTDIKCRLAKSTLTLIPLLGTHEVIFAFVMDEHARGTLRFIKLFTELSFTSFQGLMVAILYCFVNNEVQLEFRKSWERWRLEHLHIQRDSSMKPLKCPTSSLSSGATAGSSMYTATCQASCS

[4] = target: T2, recombinant human glucagon receptor; experiment: cell-based or functional assay; remark: listed apart in the source
rat glucagon receptor = target: T4, rat glucagon receptor (rat, UniProt P30082 27-485); experiment: I-125-Gcg competition SPA, membranes of 293HEK cells expressing rGcg-R
T4 construct: whole, on cells; Used as membranes of transiently transfected 293HEK cells; also called rGcg-R; rat Gcg-R
Experimental: (§1) The specific activity is 2200 Ci/mmol. KD determination is performed by homologous competition or saturation binding analysis.
(§2) The receptor binding assay is carried out using a Scintillation Proximity Assay (SPA) format with wheat germ agglutinin (WGA) beads (Perkin Elmer). The binding buffer contains 25 mM 4-(2-hydroxyethyl)-1-piperazineethanesulfonic acid (HEPES), pH 7.4, 2.5 mM CaCl₂, 1 mM MgCl₂, 0.1% (w/v) bacitracin (Affymetrix), 0.003% (w/v) Polyoxyethylenesorbitan monolaurate (TWEEN®-20) and Roche Complete™ Protease Inhibitors without EDTA.

mouse glucagon receptor = target: T5, mouse glucagon receptor (mouse, UniProt Q61606 27-485); experiment: I-125-Gcg competition SPA, membranes of 293HEK cells expressing mGcg-R
T5 construct: whole, on cells; Used as membranes of a clonal 293HEK line; also called mGcg-R; mGcgR
Experimental: as §1, §2

[5] = target: T2, recombinant human glucagon receptor; experiment: I-125-Gcg competition SPA, membranes of 293HEK cells expressing hGcg-R
Experimental: as §1, §2

[6] = target: T6, human glucose-dependent insulinotropic polypeptide receptor (human, UniProt P48546 22-466); experiment: cell-based or functional assay
T6 sequence (looked up): T1 sequence (looked up)

[7] = target: T3, human Glucagon-Like Peptide-1 receptor; experiment: cell-based or functional assay; remark: listed apart in the source
[8] = target: T6, human glucose-dependent insulinotropic …; experiment: cell-based or functional assay; remark: listed apart in the source
[9] = target: T2, recombinant human glucagon receptor; experiment: cell-based or functional assay; remark: listed apart in the source
[10] = target: T3, human Glucagon-Like Peptide-1 receptor; experiment: cell-based or functional assay; remark: listed apart in the source
[11] = target: T6, human glucose-dependent insulinotropic …; experiment: cell-based or functional assay; remark: listed apart in the source
[12] = target: T2, recombinant human glucagon receptor; experiment: cell-based or functional assay; remark: listed apart in the source
[13] = target: T3, human Glucagon-Like Peptide-1 receptor; experiment: cell-based or functional assay; remark: listed apart in the source

T2 sequence (P47871 26-477): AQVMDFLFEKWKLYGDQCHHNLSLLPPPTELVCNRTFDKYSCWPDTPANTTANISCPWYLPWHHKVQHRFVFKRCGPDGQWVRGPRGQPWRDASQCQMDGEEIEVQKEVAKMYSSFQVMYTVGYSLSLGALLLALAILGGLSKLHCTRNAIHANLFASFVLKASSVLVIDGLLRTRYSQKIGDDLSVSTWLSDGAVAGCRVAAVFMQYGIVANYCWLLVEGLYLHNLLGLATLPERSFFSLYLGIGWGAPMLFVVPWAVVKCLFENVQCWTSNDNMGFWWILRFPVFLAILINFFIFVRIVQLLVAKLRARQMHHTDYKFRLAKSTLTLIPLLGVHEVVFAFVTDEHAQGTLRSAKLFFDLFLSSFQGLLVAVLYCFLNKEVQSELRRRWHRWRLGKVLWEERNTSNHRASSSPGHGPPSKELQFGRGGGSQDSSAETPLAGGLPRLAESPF
T5 sequence (Q61606 27-485): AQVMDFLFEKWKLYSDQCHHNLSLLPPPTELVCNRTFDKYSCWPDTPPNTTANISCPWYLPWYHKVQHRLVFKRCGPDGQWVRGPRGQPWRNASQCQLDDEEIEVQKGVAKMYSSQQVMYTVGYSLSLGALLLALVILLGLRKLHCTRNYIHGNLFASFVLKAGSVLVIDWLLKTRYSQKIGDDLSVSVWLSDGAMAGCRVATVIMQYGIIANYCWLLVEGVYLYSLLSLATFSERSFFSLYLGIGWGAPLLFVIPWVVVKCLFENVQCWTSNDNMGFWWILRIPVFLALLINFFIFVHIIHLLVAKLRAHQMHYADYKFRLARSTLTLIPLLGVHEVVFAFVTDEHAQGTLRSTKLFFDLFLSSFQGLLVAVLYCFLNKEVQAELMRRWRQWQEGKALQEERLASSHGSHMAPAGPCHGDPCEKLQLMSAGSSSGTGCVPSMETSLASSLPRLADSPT
T4 sequence (P30082 27-485): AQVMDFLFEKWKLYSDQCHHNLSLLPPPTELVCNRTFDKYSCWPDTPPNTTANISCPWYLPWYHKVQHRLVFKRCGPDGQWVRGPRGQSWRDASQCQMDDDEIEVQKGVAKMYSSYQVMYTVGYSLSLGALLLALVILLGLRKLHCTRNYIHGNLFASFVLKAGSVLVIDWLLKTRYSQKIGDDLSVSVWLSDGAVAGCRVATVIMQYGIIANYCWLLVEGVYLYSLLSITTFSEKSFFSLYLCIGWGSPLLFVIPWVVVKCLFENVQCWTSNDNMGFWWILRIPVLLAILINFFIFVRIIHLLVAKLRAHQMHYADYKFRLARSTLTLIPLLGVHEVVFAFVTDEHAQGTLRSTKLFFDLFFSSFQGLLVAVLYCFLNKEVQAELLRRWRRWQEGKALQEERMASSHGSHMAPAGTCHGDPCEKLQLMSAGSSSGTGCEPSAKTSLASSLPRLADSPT

## dulaglutide (Fc fusion)
[1]
  EC50, cAMP, GIP Receptor Assay; sample C6.5-4 C.-4 wk: > 100 nM
  EC50, cAMP, GIP Receptor Assay; sample C6.5-40 C.-4 wk: > 100 nM
  EC50, cAMP, GIP Receptor Assay; sample C6.5MT-4 C.-4 wk: > 100 nM
  EC50, cAMP, GIP Receptor Assay; sample C6.5MT-40 C.-4 wk: > 100 nM
[2]
  EC50, cAMP, Gcg Receptor Assay; sample C6.5-4 C.-4 wk: 51.9 nM
  EC50, cAMP, Gcg Receptor Assay; sample C6.5-40 C.-4 wk: > 100 nM
  EC50, cAMP, Gcg Receptor Assay; sample C6.5MT-4 C.-4 wk: 54 nM
  EC50, cAMP, Gcg Receptor Assay; sample C6.5MT-40 C.-4 wk: > 100 nM
[3]
  EC50, cAMP, GLP-1 Receptor Assay; sample C6.5-4 C.-4 wk: 0.37 nM
  EC50, cAMP, GLP-1 Receptor Assay; sample C6.5-40 C.-4 wk: 0.31 nM
  EC50, cAMP, GLP-1 Receptor Assay; sample C6.5MT-4 C.-4 wk: 0.4 nM
  EC50, cAMP, GLP-1 Receptor Assay; sample C6.5MT-40 C.-4 wk: 0.29 nM

B1: human GIP(1-42)NH2 (peptide)
peptide: YAEGTFISDYSIAMDKIHQQDFVNWLLAQKGKKNDWKHNITQ-NH2
[4]
  EC50, intracellular cAMP (HTRF): > 10 nM

B2: Example 6 (peptide)
peptide: YXQGTFTSDYSKYLDXKKAXEFVAWLLEE
modifications: Aib at positions 2 and 16; K20 epsilon-amino group conjugated with ([2-(2-Amino-ethoxy)-ethoxy]-acetyl)2-(γGlu)1-CO-(CH2)16-CO2H; C-terminal acid
Rat glucagon receptor
  Ki: 0.98 nM
Mouse glucagon receptor
  Ki: 0.123 nM
[5]
  Ki: 0.316 nM
[6]
  EC50, intracellular cAMP (HTRF): > 500 nM
[4]
  EC50, intracellular cAMP (HTRF): 0.00413 nM
[7]
  EC50, intracellular cAMP (HTRF): > 100 nM

B3: Example 1 (peptide)
peptide: YXQGTFTSDYSKYLDXKKAXEFVEWLLETGPSSGAPPPS
modifications: Aib at positions 2 and 16; K20 epsilon-amino group conjugated with ([2-(2-Amino-ethoxy)-ethoxy]-acetyl)2-(γGlu)2-CO-(CH2)16-CO2H; C-terminal primary amide
[8]
  EC50, cAMP, GIP Receptor Assay; sample T7-4 C.-4 wk: > 100 nM
  EC50, cAMP, GIP Receptor Assay; sample T7-40 C.-4 wk: > 100 nM
  EC50, cAMP, GIP Receptor Assay; sample T7m-4 C.-4 wk: > 100 nM
  EC50, cAMP, GIP Receptor Assay; sample T7m-40 C.-4 wk: > 100 nM
[9]
  EC50, cAMP, Gcg Receptor Assay; sample T7-4 C.-4 wk: 0.0203 nM
  EC50, cAMP, Gcg Receptor Assay; sample T7-40 C.-4 wk: 0.0217 nM
  EC50, cAMP, Gcg Receptor Assay; sample T7m-4 C.-4 wk: 0.023 nM
  EC50, cAMP, Gcg Receptor Assay; sample T7m-40 C.-4 wk: 0.0194 nM
[10]
  EC50, cAMP, GLP-1 Receptor Assay; sample T7-4 C.-4 wk: > 100 nM
  EC50, cAMP, GLP-1 Receptor Assay; sample T7-40 C.-4 wk: 57.5 nM
  EC50, cAMP, GLP-1 Receptor Assay; sample T7m-4 C.-4 wk: 43.8 nM
  EC50, cAMP, GLP-1 Receptor Assay; sample T7m-40 C.-4 wk: 49.7 nM
[11]
  EC50, cAMP, GIP Receptor Assay; sample C6.5-4 C.-4 wk: > 100 nM
  EC50, cAMP, GIP Receptor Assay; sample C6.5-40 C.-4 wk: > 100 nM
  EC50, cAMP, GIP Receptor Assay; sample C6.5MT-4 C.-4 wk: > 100 nM
  EC50, cAMP, GIP Receptor Assay; sample C6.5MT-40 C.-4 wk: > 100 nM
[12]
  EC50, cAMP, Gcg Receptor Assay; sample C6.5-4 C.-4 wk: 0.0178 nM
  EC50, cAMP, Gcg Receptor Assay; sample C6.5-40 C.-4 wk: 0.0243 nM
  EC50, cAMP, Gcg Receptor Assay; sample C6.5MT-4 C.-4 wk: 0.0188 nM
  EC50, cAMP, Gcg Receptor Assay; sample C6.5MT-40 C.-4 wk: 0.0146 nM
[13]
  EC50, cAMP, GLP-1 Receptor Assay; sample C6.5-4 C.-4 wk: 41.6 nM
  EC50, cAMP, GLP-1 Receptor Assay; sample C6.5-40 C.-4 wk: 54.6 nM
  EC50, cAMP, GLP-1 Receptor Assay; sample C6.5MT-4 C.-4 wk: 55.6 nM
  EC50, cAMP, GLP-1 Receptor Assay; sample C6.5MT-40 C.-4 wk: 47.9 nM
Rat glucagon receptor
  Ki: 9.78 nM
Mouse glucagon receptor
  Ki: 1.92 nM
[5]
  Ki: 2.04 nM
[6]
  EC50, intracellular cAMP (HTRF): > 500 nM
[4]
  EC50, intracellular cAMP (HTRF): 0.00436 nM
[7]
  EC50, intracellular cAMP (HTRF): 73.9 nM

B4: Example 2 (peptide)
peptide: B3 peptide
modifications: Aib at positions 2 and 16; K20 epsilon-amino group conjugated with ([2-(2-Amino-ethoxy)-ethoxy]-acetyl)2-(γGlu)2-CO-(CH2)18-CO2H; C-terminal primary amide
Rat glucagon receptor
  Ki: 5.59 nM
Mouse glucagon receptor
  Ki: 0.991 nM
[5]
  Ki: 1.07 nM
[6]
  EC50, intracellular cAMP (HTRF): > 500 nM
[4]
  EC50, intracellular cAMP (HTRF): 0.0112 nM
[7]
  EC50, intracellular cAMP (HTRF): > 100 nM

B5: Example 3 (peptide)
peptide: B3 peptide with T7L
modifications: Aib at positions 2 and 16; K20 epsilon-amino group conjugated with ([2-(2-Amino-ethoxy)-ethoxy]-acetyl)2-(γGlu)2-CO-(CH2)16-CO2H; C-terminal primary amide
[8]
  EC50, cAMP, GIP Receptor Assay; sample T7-4 C.-4 wk: > 100 nM
  EC50, cAMP, GIP Receptor Assay; sample T7-40 C.-4 wk: > 100 nM
  EC50, cAMP, GIP Receptor Assay; sample T7m-4 C.-4 wk: > 100 nM
  EC50, cAMP, GIP Receptor Assay; sample T7m-40 C.-4 wk: > 100 nM
[9]
  EC50, cAMP, Gcg Receptor Assay; sample T7-4 C.-4 wk: 0.0143 nM
  EC50, cAMP, Gcg Receptor Assay; sample T7-40 C.-4 wk: 0.0249 nM
  EC50, cAMP, Gcg Receptor Assay; sample T7m-4 C.-4 wk: 0.0211 nM
  EC50, cAMP, Gcg Receptor Assay; sample T7m-40 C.-4 wk: 0.0211 nM
[10]
  EC50, cAMP, GLP-1 Receptor Assay; sample T7-4 C.-4 wk: > 100 nM
  EC50, cAMP, GLP-1 Receptor Assay; sample T7-40 C.-4 wk: > 100 nM
  EC50, cAMP, GLP-1 Receptor Assay; sample T7m-4 C.-4 wk: > 100 nM
  EC50, cAMP, GLP-1 Receptor Assay; sample T7m-40 C.-4 wk: > 100 nM
[11]
  EC50, cAMP, GIP Receptor Assay; sample C6.5-4 C.-4 wk: > 100 nM
  EC50, cAMP, GIP Receptor Assay; sample C6.5-40 C.-4 wk: > 100 nM
  EC50, cAMP, GIP Receptor Assay; sample C6.5MT-4 C.-4 wk: > 100 nM
  EC50, cAMP, GIP Receptor Assay; sample C6.5MT-40 C.-4 wk: > 100 nM
[12]
  EC50, cAMP, Gcg Receptor Assay; sample C6.5-4 C.-4 wk: 0.0369 nM
  EC50, cAMP, Gcg Receptor Assay; sample C6.5-40 C.-4 wk: 0.0257 nM
  EC50, cAMP, Gcg Receptor Assay; sample C6.5MT-4 C.-4 wk: 0.0193 nM
  EC50, cAMP, Gcg Receptor Assay; sample C6.5MT-40 C.-4 wk: 0.0214 nM
[13]
  EC50, cAMP, GLP-1 Receptor Assay; sample C6.5-4 C.-4 wk: > 100 nM
  EC50, cAMP, GLP-1 Receptor Assay; sample C6.5-40 C.-4 wk: > 100 nM
  EC50, cAMP, GLP-1 Receptor Assay; sample C6.5MT-4 C.-4 wk: > 100 nM
  EC50, cAMP, GLP-1 Receptor Assay; sample C6.5MT-40 C.-4 wk: > 100 nM
Rat glucagon receptor
  Ki: 1.56 nM
Mouse glucagon receptor
  Ki: 0.174 nM
[5]
  Ki: 0.287 nM
[6]
  EC50, intracellular cAMP (HTRF): > 500 nM
[4]
  EC50, intracellular cAMP (HTRF): 0.0034 nM
[7]
  EC50, intracellular cAMP (HTRF): > 100 nM

B6: Example 7 (peptide)
peptide: YXQGTFTSDYSKYLDXKKAXEFVAWLLEE
modifications: Aib at positions 2 and 16; K20 epsilon-amino group conjugated with ([2-(2-Amino-ethoxy)-ethoxy]-acetyl)2-(γGlu)1-CO-(CH2)18-CO2H; C-terminal acid
Rat glucagon receptor
  Ki: 1.38 nM
Mouse glucagon receptor
  Ki: 0.753 nM
[5]
  Ki: 0.673 nM
[6]
  EC50, intracellular cAMP (HTRF): > 500 nM
[4]
  EC50, intracellular cAMP (HTRF): 0.0166 nM
[7]
  EC50, intracellular cAMP (HTRF): > 100 nM
